Results taken from patent US7531661B2, “Indane compounds as CCR5 antagonists” (SmithKline Beecham Corporation, priority 2002, dated 2009).

Target: T1, human CCR5 chemokine receptor (Homo sapiens, UniProt P51681)
T1 construct: host or cells: Chinese Hamster Ovary (CHO) cells; membranes prepared from the cell pellet
Assay: CC-Chemokine Receptor-5 Binding by Scintillation Proximity Assay (CCR5 SPA), displacement of 125I-MIP1α
Conditions: standards plate, 14-point concentration-response curve in triplicate, starting concentration 1 μM
Experimental: CC-Chemokine Receptor-5 Binding by Scintillation Proximity Assay (CCR5 SPA)
Scintillation Proximity Assay for the Human CC-Chemokine Receptor, CCR-5
This protocol describes a high-throughput screen using SPA binding to identify compounds that inhibit binding of ^125I-MIP1α to the human CCR5 chemokine receptor.
Human CCR5 receptors were expressed in Chinese Hamster Ovary (CHO) cells, registration # 12025. Cells were grown in suspension and a 50 to 80 ml CCR5 cell pellet was prepared. […]
The saturation curve binding experiment is performed by adding varying amounts of [^125I]MIP1α (0-8.5 nM to membranes and beads in concentrations chosen from the optimal protein/bead ratio. The data is analyzed using a non-linear curve-fitting program. The Kd and Bmax are derived from the curve. […]

T1 sequence (P51681 whole entry): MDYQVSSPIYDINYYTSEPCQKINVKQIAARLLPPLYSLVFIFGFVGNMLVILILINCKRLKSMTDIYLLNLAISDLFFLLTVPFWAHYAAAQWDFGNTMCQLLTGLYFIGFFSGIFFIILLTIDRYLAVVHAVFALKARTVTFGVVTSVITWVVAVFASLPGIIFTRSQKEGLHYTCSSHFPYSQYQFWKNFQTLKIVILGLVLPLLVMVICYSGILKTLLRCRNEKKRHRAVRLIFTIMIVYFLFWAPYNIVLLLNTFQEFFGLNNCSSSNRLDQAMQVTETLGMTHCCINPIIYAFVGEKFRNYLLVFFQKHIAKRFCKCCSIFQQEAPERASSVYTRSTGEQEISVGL

Which “average historical pKi obtained with MIP1α” value does the source give for “MIP1α: standard compound of the CCR5 SPA; natural chemokine ligand of CCR5” here?
The value was 7.6.
